Here are results for four molecules from publication PMC10590968, “Deciphering the role of recurrent FAD-dependent enzymes in bacterial phosphonate catabolism” (iScience, 2023).

One series addresses T1, PbfC (Azospirillum sp. B510, UniProt P0DY71).
T1 construct: synthetic codon-optimised gene in pET28a, N-terminal His tag, expressed in E. coli Tuner (DE3), HisTrap and SEC; noncovalent FAD
T1 sequence (P0DY71 1-415): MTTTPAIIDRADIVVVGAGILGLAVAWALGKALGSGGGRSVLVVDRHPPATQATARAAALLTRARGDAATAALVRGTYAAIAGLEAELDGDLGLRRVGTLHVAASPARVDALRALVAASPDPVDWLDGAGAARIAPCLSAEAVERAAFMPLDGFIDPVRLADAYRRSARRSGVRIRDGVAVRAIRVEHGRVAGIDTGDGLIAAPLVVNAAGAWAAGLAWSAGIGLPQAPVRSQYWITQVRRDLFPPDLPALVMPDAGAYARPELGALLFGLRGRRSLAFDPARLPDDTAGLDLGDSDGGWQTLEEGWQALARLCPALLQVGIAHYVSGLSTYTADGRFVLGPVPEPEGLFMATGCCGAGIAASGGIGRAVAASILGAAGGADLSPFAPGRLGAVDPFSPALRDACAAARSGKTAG
In words: UV-vis spectra of bound flavin; cofactor released by heat or SDS. In kind it is binding. The note with it: noncovalent; 10 μM FAD added during purification; 50 mM TEA-HCl pH 8.0.

For another series, the target named is T2, PbfD1 (Acinetobacter baumannii, UniProt P0DY72).
T2 construct: gene pbfD; synthetic codon-optimised gene in pET28a, N-terminal His tag, expressed in E. coli Tuner (DE3), HisTrap; noncovalent FAD
T2 sequence (P0DY72 1-384): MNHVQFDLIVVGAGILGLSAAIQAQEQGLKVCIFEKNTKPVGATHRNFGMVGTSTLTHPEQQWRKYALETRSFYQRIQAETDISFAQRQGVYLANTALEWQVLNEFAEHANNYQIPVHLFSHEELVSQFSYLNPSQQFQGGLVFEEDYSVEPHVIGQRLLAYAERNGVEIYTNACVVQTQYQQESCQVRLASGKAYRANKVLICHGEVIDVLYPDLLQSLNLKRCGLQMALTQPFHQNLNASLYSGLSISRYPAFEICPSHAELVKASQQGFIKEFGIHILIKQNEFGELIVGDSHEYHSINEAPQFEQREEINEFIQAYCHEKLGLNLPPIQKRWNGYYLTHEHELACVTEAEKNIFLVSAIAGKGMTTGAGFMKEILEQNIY
The series is described as above. In kind it is binding. As to conditions: noncovalent; 10 μM FAD added at lysis; 50 mM TEA-HCl pH 8.0.

A further series addresses T3, PbfD2 (Mariniblastus fucicola, UniProt A0A5B9PNB8).
T3 construct: gene pbfD; noncovalent FAD
T3 sequence (A0A5B9PNB8 1-373): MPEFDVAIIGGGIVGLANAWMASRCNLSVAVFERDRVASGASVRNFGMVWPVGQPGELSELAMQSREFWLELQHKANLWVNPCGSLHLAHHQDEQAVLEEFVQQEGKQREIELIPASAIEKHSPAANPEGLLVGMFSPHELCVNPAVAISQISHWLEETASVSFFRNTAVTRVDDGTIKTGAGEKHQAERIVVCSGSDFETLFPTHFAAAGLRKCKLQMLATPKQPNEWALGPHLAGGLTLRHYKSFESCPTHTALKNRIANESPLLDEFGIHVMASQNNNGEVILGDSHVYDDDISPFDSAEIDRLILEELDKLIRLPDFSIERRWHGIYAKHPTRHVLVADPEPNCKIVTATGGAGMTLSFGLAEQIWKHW
Described as above. The series is classed as binding. As to conditions: noncovalent; 10 μM FAD added at lysis; 50 mM TEA-HCl pH 8.0.

Substrate in series [1]: NCCP(=O)(O)O
Description: purified protein.

Substrate in series [2]: CNCCP(=O)(O)O
In words: purified protein.

Substrate in series [3]: NCCP(=O)(O)O
In words: coupled PhnX-ADH assay, NADH A340, Michaelis-Menten fit. In kind it is biochemical, Acinetobacter baumannii. The note with it: air-saturated (~0.25 mM O2), 50 mM TEA-HCl pH 8.0, 2.5 mM MgCl2, 25°C. From the text: (§1) coupled PhnX-ADH assay, NADH A340, Michaelis-Menten fit on PbfD1

Substrate in series [4]: CN(C)CCP(=O)(O)O
The series is described as above. In kind it is biochemical, Acinetobacter baumannii. As to conditions: air-saturated (~0.25 mM O2), 50 mM TEA-HCl pH 8.0, 2.5 mM MgCl2, 25°C.
Excerpt: as §1

Substrate in series [5]: CNCCP(=O)(O)O
Described as above. As to conditions: air-saturated (~0.25 mM O2), 50 mM TEA-HCl pH 8.0, 2.5 mM MgCl2, 25°C. The series is classed as biochemical, Acinetobacter baumannii.
Excerpt: as §1

[6] abbreviates: air-saturated (~0.25 mM O2), 50 mM TEA-HCl pH 8.0, 2.5 mM MgCl2, 25°C.
[7] abbreviates: 80 μM DCPIP, 3 mM PMS, 50 mM TEA-HCl pH 8.0, 25°C.

For `Cc1cc2nc3c(=O)[nH]c(=O)nc-3n(C[C@H](O)[C@H](O)[C@H](O)COP(=O)(O)OP(=O)(O)OC[C@H]3O[C@@H](n4cnc5c(N)ncnc54)[C@H](O)[C@@H]3O)c2cc1C` [FAD], the “UV-vis spectra of bound flavin; cofactor released by heat or SDS” value at PbfC, at PbfD1 and at PbfD2 was “the spectrum of the released cofactor was typical of FAD” in each case.

B1: PbfD2 (Mariniblastus fucicola) (protein)
chain: MPEFDVAIIGGGIVGLANAWMASRCNLSVAVFERDRVASGASVRNFGMVWPVGQPGELSELAMQSREFWLELQHKANLWVNPCGSLHLAHHQDEQAVLEEFVQQEGKQREIELIPASAIEKHSPAANPEGLLVGMFSPHELCVNPAVAISQISHWLEETASVSFFRNTAVTRVDDGTIKTGAGEKHQAERIVVCSGSDFETLFPTHFAAAGLRKCKLQMLATPKQPNEWALGPHLAGGLTLRHYKSFESCPTHTALKNRIANESPLLDEFGIHVMASQNNNGEVILGDSHVYDDDISPFDSAEIDRLILEELDKLIRLPDFSIERRWHGIYAKHPTRHVLVADPEPNCKIVTATGGAGMTLSFGLAEQIWKHW
Regarding B1, in the series “purified protein [1]” (setting [6]), the Km is 2.6 ± 0.32 mM, the kcat turned out to be 8.9 ± 0.3 s⁻¹ and the specificity constant (kcat/Km) turned out to be 3400 ± 320 M⁻¹ s⁻¹. Moreover, in “purified protein [2]” (setting [6]), the Michaelis constant (Km) is given as 0.36 ± 0.02 mM, the kcat came to 4.9 ± 0.07 s⁻¹ and the kcat/Km is 13500 ± 550 M⁻¹ s⁻¹.

B2: PbfD1 (Acinetobacter baumannii) (protein)
chain: MNHVQFDLIVVGAGILGLSAAIQAQEQGLKVCIFEKNTKPVGATHRNFGMVGTSTLTHPEQQWRKYALETRSFYQRIQAETDISFAQRQGVYLANTALEWQVLNEFAEHANNYQIPVHLFSHEELVSQFSYLNPSQQFQGGLVFEEDYSVEPHVIGQRLLAYAERNGVEIYTNACVVQTQYQQESCQVRLASGKAYRANKVLICHGEVIDVLYPDLLQSLNLKRCGLQMALTQPFHQNLNASLYSGLSISRYPAFEICPSHAELVKASQQGFIKEFGIHILIKQNEFGELIVGDSHEYHSINEAPQFEQREEINEFIQAYCHEKLGLNLPPIQKRWNGYYLTHEHELACVTEAEKNIFLVSAIAGKGMTTGAGFMKEILEQNIY
notes: synthetic codon-optimised gene in pET28a, N-terminal His tag, expressed in E. coli Tuner (DE3), HisTrap; noncovalent FAD
For the molecule B2, in series [3], the Km stood at 71 ± 16 mM, the kcat is 9.1 ± 1.7 s⁻¹ and the kcat/Km was determined as 130 ± 6 M⁻¹ s⁻¹. Moreover, in series [4], the Km came to 54 ± 14 mM, the turnover number (kcat) was determined as 22 ± 4.5 s⁻¹ and the kcat/Km was found to be 400 ± 26 M⁻¹ s⁻¹. Further, in series [5], the Km was 5.8 ± 0.62 mM, the turnover number (kcat) came to 13.2 ± 0.54 s⁻¹ and the kcat/Km was 2300 ± 160 M⁻¹ s⁻¹.

B3: PbfC (Azospirillum sp. B510) (protein)
chain: MTTTPAIIDRADIVVVGAGILGLAVAWALGKALGSGGGRSVLVVDRHPPATQATARAAALLTRARGDAATAALVRGTYAAIAGLEAELDGDLGLRRVGTLHVAASPARVDALRALVAASPDPVDWLDGAGAARIAPCLSAEAVERAAFMPLDGFIDPVRLADAYRRSARRSGVRIRDGVAVRAIRVEHGRVAGIDTGDGLIAAPLVVNAAGAWAAGLAWSAGIGLPQAPVRSQYWITQVRRDLFPPDLPALVMPDAGAYARPELGALLFGLRGRRSLAFDPARLPDDTAGLDLGDSDGGWQTLEEGWQALARLCPALLQVGIAHYVSGLSTYTADGRFVLGPVPEPEGLFMATGCCGAGIAASGGIGRAVAASILGAAGGADLSPFAPGRLGAVDPFSPALRDACAAARSGKTAG
Turning to B3, in “purified protein [1]” (setting [7]), the Km was 20 ± 1.7 mM, the kcat amounted to 2.2 ± 0.1 s⁻¹ and the kcat/Km came out at 110 ± 6 M⁻¹ s⁻¹. In addition, in “purified protein [2]” (setting [7]), the Km is reported as 0.20 ± 0.01 mM, the kcat was 9 ± 0.2 s⁻¹ and the kcat/Km stood at 45000 ± 2700 M⁻¹ s⁻¹.

As a reminder, the Km is the concentration of substrate that gives half-maximal velocity. The term kcat denotes the number of substrate molecules converted per active site and unit of time at saturation. For orientation: kcat/Km means the turnover number divided by the Michaelis constant.
